This note sets out measurements from publication PMC7055376, “Evidence for binary Smc complexes lacking kite subunits in archaea” (IUCrJ, 2020).

One may read the stoichiometry N as the number of molecules, sites or subunits per partner or assembly.

Data set [1] concerns the molecule itself. Description: SEC; individual ScpB homologue alone on Superdex 200 Increase 10/300 GL; 20 mM Tris-HCl pH 7.5, 100 mM NaCl, 1 mM DTT, 4°C; elution compared with 158 kDa and 43 kDa markers. Background: Size exclusion chromatography separates by hydrodynamic size, large species first.
Data set [2] concerns the molecule itself. Description: crystal structure; SeMet-substituted full-length PYCH_12850; 35% pentaerythritol propoxylate, 0.1 M MES pH 5.5, 0.4 M NaCl, 22°C.
In data set [3] the target is T1, (His)10-MBP-tagged Thermococcus onnurineus ScpA (TON_1071) (Thermococcus onnurineus, UniProt B6YWU6).
T1 chain: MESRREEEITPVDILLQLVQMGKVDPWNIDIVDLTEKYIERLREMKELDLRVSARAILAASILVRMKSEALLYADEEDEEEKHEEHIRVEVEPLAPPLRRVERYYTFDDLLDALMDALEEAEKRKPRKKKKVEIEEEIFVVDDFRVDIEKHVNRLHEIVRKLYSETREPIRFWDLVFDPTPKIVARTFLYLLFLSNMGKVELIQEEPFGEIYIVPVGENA
Briefly: His pull-down (Ni-NTA) and size-exclusion chromatography.

B1: Metli_0606 (sole ScpB homologue of Methanofollis liminatans), untagged (natural protein, UniProt J1ANV5 1-161, looked up)
chain: MVDRTAMLEAALFVADAPVSYGDLAKIFGIKPGEVPALAQELSGRLSARSSPLEVIDSGESVFMVLKEEYAVLVYPVMRPEISRAVLRTLSVIAYRQPILQSDLIEIRGGGAYAHVEELVKRDLVARYRSGRSYLLQTTPEFSRYFKTSDLVGGQGRLDID
notes: ScpB homologue Metli_0606 of Methanofollis liminatans; untagged in the assays; also called ScpB homologue Metli_0606; source: E. coli BL21 (DE3) RIPL, purified
As to B1, the “stoichiometry N” value in data set [1] is 2.

B2: Selenomethionine-substituted full-length PYCH_12850 (crystallised) (natural protein, Pyrococcus yayanosii, UniProt F8AFC4 1-192, looked up)
chain: MGLLEDKALVEAALFVAGRPLSLKELSKALGIKSLEYLEKLIELIASEYEERKSAIEVVKVLGDKWVMQLKQEYSQKVIHLMPKPELRAGELKTLALIAYLQPVEQSKIIKLRGSQAYEHIKKLLEMGLIYAEPYERTKLLGTTQKFAELYGFPENDPELIKEAFKKVIHSEYADLMEKIEKNNRKDKREEA
modifications: selenomethionine in place of methionine
notes: ScpB homologue PYCH_12850 of Pyrococcus yayanosii, full length; homodimer in the crystal; also called PYCH_12850 (SeMet); ScpB from Pyrococcus yayanosii; source: E. coli B834 (DE3) RIL, purified
As for B2, the binding result in data set [2] is given as “binds”.

B3: TON_1955 (putative Thermococcus onnurineus ScpB), untagged (protein)
chain: MGLLEDKALVEAALFVSGRPLSIKELSRALGIRSLDYLEKLIELIAAEYAERKSAIEVVRVLGDKYVMQVKQEYSQRVVHLMPRPDLRTGELKTLALIAYLQPIEQSKLVKLRGSQAYEHIRKLLEMGLIYAEPYERTKLLGTTPKFAELYGFPENDPMMIKEAFKKVVHAEYSDLIAKLEGKEEKEEMPQESEE
On to B3, for which the binding result in data set [3] is reported as “no binding”.
